Experimental data reported in article PMC12496170.

Target: Spike-Accum bioconjugate (Accum-bioconjugated Sp protein) (SARS-CoV-2) (UniProt P0DTC2)
Experiment: cryo-EM structure

For “Spike-Accum bioconjugate (Accum-bioconjugated Sp protein) (from UniProt P0DTC2 14-1213)”, the stoichiometry N was 3.
